Assay results: PMC5966361, “Ligand binding and conformational changes of SUR1 subunit in pancreatic ATP-sensitive potassium channels” (Protein & Cell, 2018)
Values belong to the molecule of their own block, whether it stands above or below them.

Assays:
[1] = target: SUR1-Kir6.2 fusion construct with a 39-residue linker (Mesocricetus auratus | Mus musculus); assay: SEC; screening of fusion constructs: cleared lysate of transfected FreeStyle 293-F cells solubilised in 20 mmol/L HEPES pH 8.0, 120 mmol/L KCl, 1% digitonin, loaded onto a Superose 6 increase column
[2] = target: the molecule itself; assay: cryo-EM structure; Mg-ADP state: purified fusion channel in 20 mmol/L HEPES pH 8.0, 120 mmol/L KCl, 0.1% digitonin, with 2.5 mmol/L MgCl2, 1 mmol/L ADP, 400 μmol/L 08:0 PI(4,5)P2, 500 μmol/L NN414 and 1 mmol/L Na3VO4; C4 symmetry

stoichiometry N [1]: 4
Molecule: SUR1-Kir6.2 fusion construct with a 39-residue linker (complex)

B1: Kir6.2 (inward-rectifying potassium channel 6.2) subunit, as part of the SUR1-Kir6.2 fusion construct (natural protein, Mus musculus)
chain: MLSRKGIIPEEYVLTRLAEDPAEPRYRTRERRARFVSKKGNCNVAHKNIREQGRFLQDVFTTLVDLKWPHTLLIFTMSFLCSWLLFAMVWWLIAFAHGDLAPGEGTNVPCVTSIHSFSSAFLFSIEVQVTIGFGGRMVTEECPLAILILIVQNIVGLMINAIMLGCIFMKTAQAHRRAETLIFSKHAVITLRHGRLCFMLRVGDLRKSMIISATIHMQVVRKTTSPEGEVVPLHQVDIPMENGVGGNGIFLVAPLIIYHVIDSNSPLYDLAPSDLHHHQDLEIIVILEGVVETTGITTQARTSYLADEILWGQRFVPIVAEEDGRYSVDYSKFGNTIKVPTPLCTARQLDEDRSLLDALTLASSRGPLRKRSVAVAKAKPKFSISPDSLS
notes: Kir6.2 from Mus musculus (Woo et al., 2013); In the assay it stood as the C-terminal part of the fusion chain of m1; its N-terminus is joined through the 39-residue linker to the C-terminus of SUR1, so it has no free native N-terminus; The linker and the Kir6.2 N-terminus are disordered in the maps; also called mmKir6.2; source: FreeStyle 293-F cells, BacMam system, purified as part of the fusion …
stoichiometry N [2]: 4
